Experiments:
FcγRIIb = target: T1, FcγRIIb (human, UniProt P31994 46-217, limits assumed, biotinylated (BLI, beads)); experiment: flow cytometry: hexameric Fc on FcγR-coated beads; y axis = mean fluorescence intensity
T1 construct: Recombinant receptor on biosensors, SPR or beads; also called FcgRIIb; 2b
T1 sequence (looked up): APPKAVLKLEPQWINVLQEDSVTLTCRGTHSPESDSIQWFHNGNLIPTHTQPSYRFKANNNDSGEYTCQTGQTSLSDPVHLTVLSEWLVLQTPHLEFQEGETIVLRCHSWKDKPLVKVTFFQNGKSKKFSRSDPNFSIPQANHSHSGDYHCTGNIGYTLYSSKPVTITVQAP

FcγRI = target: T2, FcγRI (human, UniProt P12314 16-288, limits assumed, biotinylated (BLI, beads)); experiment: as above
T2 construct: Recombinant receptor; also called FcgRI

FcγRIIIaV158 [1] = target: T3, FcγRIIIaV158 (human, UniProt P08637 17-208, biotinylated (BLI, beads)); experiment: flow cytometry: hexameric Fc on FcγR-coated beads; mean fluorescence intensity
T3 construct: also called FcgRIIIaV158; 3aV

FcgRIIIbNA2 [2] = target: T4, FcgRIIIbNA2 (human, UniProt O75015 17-200, limits assumed); experiment: as above
T4 construct: also called FcγRIIIb

FcγRIIaR131 [3] = target: T5, FcγRIIaR131 (human, UniProt P12318 36-218, limits assumed, biotinylated (BLI, beads)); experiment: as above
T5 construct: also called FcgRIIaR131; 2aR
T5 sequence (looked up): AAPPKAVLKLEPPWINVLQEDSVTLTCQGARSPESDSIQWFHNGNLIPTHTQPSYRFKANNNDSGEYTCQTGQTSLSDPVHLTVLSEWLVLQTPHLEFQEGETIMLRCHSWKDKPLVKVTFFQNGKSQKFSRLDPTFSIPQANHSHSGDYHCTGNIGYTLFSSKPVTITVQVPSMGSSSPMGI

FcγRIIaH131 [4] = target: T6, FcγRIIaH131 (human, UniProt P12318 36-218, limits assumed, biotinylated (BLI, beads)); experiment: as above
T6 construct: also called FcgRIIaH131
T6 sequence (looked up): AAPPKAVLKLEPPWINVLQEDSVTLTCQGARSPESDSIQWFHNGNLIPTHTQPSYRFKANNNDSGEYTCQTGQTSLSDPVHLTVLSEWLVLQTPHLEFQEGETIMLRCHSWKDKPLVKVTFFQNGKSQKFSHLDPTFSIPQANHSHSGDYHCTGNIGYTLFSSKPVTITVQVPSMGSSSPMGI

[5] = target: T7, FcγRIIb on cells (Raji cells; THP-1 cells) (human, UniProt P31994 43-310); experiment: flow cytometry: hexameric Fc on Raji cells (only FcγR2b among Fc receptors), 40 to 0.039 ug/ml; upper panel fluorescence intensity (axis without title), lower panel percent positive; last bar of each group = Ramos cells at 40 ug/ml
T7 construct: whole, on cells; also called FcγR2b; FcgR2b
T7 sequence (looked up): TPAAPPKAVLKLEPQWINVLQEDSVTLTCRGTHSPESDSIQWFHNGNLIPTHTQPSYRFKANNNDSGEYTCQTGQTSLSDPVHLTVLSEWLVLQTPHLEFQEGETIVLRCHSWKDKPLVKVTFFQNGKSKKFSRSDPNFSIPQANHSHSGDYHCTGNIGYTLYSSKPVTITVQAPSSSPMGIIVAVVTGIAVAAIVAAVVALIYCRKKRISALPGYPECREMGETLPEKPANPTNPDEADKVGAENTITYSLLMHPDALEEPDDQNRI
Procedure: Error bars are standard error of the mean of triplicate samples. Statistical analysis was performed by one way ANOVA with Tukey s multiple comparisons test (***P 0.001, ****P 0.0001). […] The cell binding of hexameric Fc was tested with Raji cell which expresses only FcγR2b among Fc receptors (FIG. 13).

FcγRIIaR131 [6] = target: T5, FcγRIIaR131; experiment: flow cytometry: hexameric Fc on FcγR-coated beads; y axis = mean fluorescence intensity
FcγRIIIaV158 [7] = target: T3, FcγRIIIaV158; experiment: flow cytometry: hexameric Fc ('Hex 2b18KQS-1') on FcγR-coated beads; mean fluorescence intensity
FcgRIIIbNA2 [8] = target: T4, FcgRIIIbNA2; experiment: as above
FcγRIIaH131 [9] = target: T6, FcγRIIaH131; experiment: as above

T4 sequence (O75015 17-200 limits assumed): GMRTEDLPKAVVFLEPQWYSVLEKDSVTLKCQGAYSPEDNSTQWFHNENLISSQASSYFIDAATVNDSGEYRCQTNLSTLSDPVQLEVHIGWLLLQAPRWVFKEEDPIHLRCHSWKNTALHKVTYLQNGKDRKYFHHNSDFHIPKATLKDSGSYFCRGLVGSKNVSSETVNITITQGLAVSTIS
T3 sequence (P08637 17-208 F176V limits assumed): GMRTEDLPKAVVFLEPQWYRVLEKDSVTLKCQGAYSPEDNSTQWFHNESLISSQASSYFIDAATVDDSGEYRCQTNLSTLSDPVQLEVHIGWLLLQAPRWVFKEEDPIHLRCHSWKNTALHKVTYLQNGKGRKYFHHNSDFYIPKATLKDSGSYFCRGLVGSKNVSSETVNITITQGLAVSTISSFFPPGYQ
T2 sequence (P12314 16-288 limits assumed): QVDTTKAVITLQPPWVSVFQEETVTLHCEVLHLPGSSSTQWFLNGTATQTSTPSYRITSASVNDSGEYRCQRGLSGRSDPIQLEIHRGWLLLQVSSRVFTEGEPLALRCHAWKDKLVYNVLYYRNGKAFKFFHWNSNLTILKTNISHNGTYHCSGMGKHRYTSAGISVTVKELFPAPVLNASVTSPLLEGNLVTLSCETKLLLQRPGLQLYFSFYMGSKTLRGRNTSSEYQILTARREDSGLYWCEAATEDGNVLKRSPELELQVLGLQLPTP

B1: Hex 2b18KQS-ST (glycosylated version of Hex 2b18KQS) (Fc fusion)
chain: EPKSCDKTHTCPPCPAPVDFRDPLVFLFPPKPKDTLMISRTPEVTCVVVDVSPEDPEVKFNWYVDGVEVHNAKTKPQEEQYNSTYRVVSVLTVCHQDWLNGKEYKCKVSNKLAPHPIIKTISKAKGQPREPQVYTLPPSRDELTKNQVSLTCLVKGFYPSDIAVEWESNGQPENNYKTTPPVLDSDGSFFLYSKLTVDKSRWQQGNVFSCSVMHEALHNHYTQKSLSLSPGKPTLYNVSLVMSDTAGTCY
notes: Ser298/Thr299 restored (glycosylated); forms a hexamer of Fc; also called glycosylated Hex 2b18KQS-ST Fc; hexameric 2b18KQS-ST Fc
binding result (FcγRIIb): binds | binding result (FcγRI): binds | binding result (FcγRIIIaV158 [1]): no binding | binding result (FcgRIIIbNA2 [2]): no binding | binding result (FcγRIIaR131 [3]): no binding | binding result (FcγRIIaH131 [4]): no binding | binding result [5]: binds

B2: Hex 2b18K-ST (Fc fusion)
Fc-tailpiece fusion chain: EPKSCDKTHTCPPCPAPVDFRDPLVFLFPPKPKDTLMISRTPEVTCVVVDVDPEDPEVKFNWYVDGVEVHNAKTKPREEQYNSTYRVVSVLTVCHQDWLNGKEYKCKVSNKLAPHPIIKTISKAKGQPREPQVYTLPPSRDELTKNQVSLTCLVKGFYPSDIAVEWESNGQPENNYKTTPPVLDSDGSFFLYSKLTVDKSRWQQGNVFSCSVMHEALHNHYTQKSLSLSPGKPTLYNVSLVMSDTAGNCY
notes: also called Hex2b218K-ST; glycosylated hexameric construct of Fc variant 2b18K
binding result (FcγRIIb): binds | binding result (FcγRIIaR131 [6]): binds | binding result (FcγRI): binds | binding result (FcγRIIIaV158 [1]): no binding | binding result (FcgRIIIbNA2 [2]): no binding | binding result (FcγRIIaH131 [4]): no binding

B3: Hex 2b18KQS (aglycosylated hexameric Fc) (Fc fusion)
chain: EPKSCDKTHTCPPCPAPVDFRDPLVFLFPPKPKDTLMISRTPEVTCVVVDVSPEDPEVKFNWYVDGVEVHNAKTKPQEEQYNGAYRVVSVLTVCHQDWLNGKEYKCKVSNKLAPHPIIKTISKAKGQPREPQVYTLPPSRDELTKNQVSLTCLVKGFYPSDIAVEWESNGQPENNYKTTPPVLDSDGSFFLYSKLTVDKSRWQQGNVFSCSVMHEALHNHYTQKSLSLSPGKPTLYNVSLVMSDTAGTCY
notes: forms a hexamer of Fc; also called Hex 2b18KQS Fc; Hex-2bKQS
binding result (FcγRIIb): binds | binding result (FcγRIIaR131 [6]): binds | binding result [5]: binds | binding result (FcγRIIIaV158 [7]): no binding | binding result (FcgRIIIbNA2 [8]): no binding | binding result (FcγRIIaH131 [9]): no binding

Reference: patent publication US20240010742A1 (RESEARCH DEVELOPMENT FOUNDATION, published 2024)
